The values that follow are results of earlier work, collected in paper PMC7671103.

This data set addresses CoV main protease (Mpro) (SARS-CoV) (UniProt P0C6X7).

Values joined by “and” are separate entries in the source; they are usually repeats but may differ in a detail not shown here. Equal entries are not always repeated.

The term Kd denotes the concentration at which binding is half-saturated. “CoV main protease (Mpro) (from UniProt P0C6X7)”: the dissociation constant Kd was 800 nM and 2000 nM.
